In PMC9482650, “Quantitative fragmentomics allow affinity mapping of interactomes” (Nature Communications, 2022):

T1: SYNJ2BP, P57105
T1 sequence (P57105 8-110, limits assumed, looked up): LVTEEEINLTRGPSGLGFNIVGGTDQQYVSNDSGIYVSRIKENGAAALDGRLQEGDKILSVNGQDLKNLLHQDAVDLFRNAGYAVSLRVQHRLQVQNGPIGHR

T2: PDZD7_3, Q9H5P4
T2 sequence (Q9H5P4 857-944, limits assumed, looked up): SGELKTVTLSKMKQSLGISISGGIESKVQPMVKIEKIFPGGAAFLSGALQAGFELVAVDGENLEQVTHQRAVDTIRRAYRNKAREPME

T3: SHANK1, Q9Y566
T3 sequence (Q9Y566 658-767, limits assumed, looked up): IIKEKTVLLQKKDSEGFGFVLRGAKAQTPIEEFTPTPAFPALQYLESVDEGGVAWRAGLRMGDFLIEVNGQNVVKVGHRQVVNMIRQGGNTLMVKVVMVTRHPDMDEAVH

T4: PTPN13_1, Q12923
T4 sequence (Q12923 1088-1188, limits assumed, looked up): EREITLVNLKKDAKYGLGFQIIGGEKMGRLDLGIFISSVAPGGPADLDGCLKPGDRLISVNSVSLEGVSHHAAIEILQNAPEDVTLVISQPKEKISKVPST

T5: GRIP1_3, Q9Y3R0
T5 sequence (Q9Y3R0 247-346, limits assumed, looked up): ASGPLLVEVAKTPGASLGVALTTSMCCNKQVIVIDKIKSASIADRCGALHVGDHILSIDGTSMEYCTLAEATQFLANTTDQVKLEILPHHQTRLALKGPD

T6: DFNB31_1, Q9P202
T6 sequence (Q9P202 135-233, limits assumed, looked up): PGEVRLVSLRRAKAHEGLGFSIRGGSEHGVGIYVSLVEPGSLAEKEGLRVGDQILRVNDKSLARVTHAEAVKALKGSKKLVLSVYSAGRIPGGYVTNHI

T7: MPP6, Q9NZW5
T7 sequence (Q9NZW5 125-219, limits assumed, looked up): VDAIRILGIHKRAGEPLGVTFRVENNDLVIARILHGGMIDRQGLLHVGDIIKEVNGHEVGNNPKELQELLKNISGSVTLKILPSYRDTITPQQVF

T8: MPDZ_12, O75970
T8 sequence (O75970 1857-1958, limits assumed, looked up): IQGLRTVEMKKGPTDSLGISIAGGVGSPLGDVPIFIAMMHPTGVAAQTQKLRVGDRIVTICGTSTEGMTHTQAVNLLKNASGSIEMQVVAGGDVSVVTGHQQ

T9: APBA1_2, Q02410
T9 sequence (Q02410 742-832, limits assumed, looked up): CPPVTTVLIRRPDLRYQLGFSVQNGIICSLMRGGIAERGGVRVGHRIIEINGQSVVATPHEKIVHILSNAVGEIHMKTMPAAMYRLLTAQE

T10: DFNB31_3, Q9P202
T10 sequence (Q9P202 811-907, limits assumed, looked up): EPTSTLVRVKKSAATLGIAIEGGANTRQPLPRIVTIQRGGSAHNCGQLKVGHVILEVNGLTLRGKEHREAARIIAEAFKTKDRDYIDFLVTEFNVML

T11: GRIP1_7, Q9Y3R0
T11 sequence (Q9Y3R0 999-1096, limits assumed, looked up): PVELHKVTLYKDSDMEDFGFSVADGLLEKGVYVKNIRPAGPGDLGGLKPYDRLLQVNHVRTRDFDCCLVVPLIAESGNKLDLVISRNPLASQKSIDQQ

T12: APBA3_1, O96018
T12 sequence (O96018 389-490, limits assumed, looked up): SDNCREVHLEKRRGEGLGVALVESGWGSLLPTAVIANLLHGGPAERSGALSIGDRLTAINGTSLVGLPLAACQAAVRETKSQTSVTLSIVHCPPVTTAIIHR


Each binder was assayed against MAGI1_2, Q96QZ7 (assay: holdup assay). Conditions: plain residues with an end cap or a label only (N-terminal biotin on a linker: ado-ado).
Parameters: key: below the threshold = too weak to quantify, mostly under pKd 3.1 to 4

Sequence of MAGI1_2, Q96QZ7 (Q96QZ7 456-580): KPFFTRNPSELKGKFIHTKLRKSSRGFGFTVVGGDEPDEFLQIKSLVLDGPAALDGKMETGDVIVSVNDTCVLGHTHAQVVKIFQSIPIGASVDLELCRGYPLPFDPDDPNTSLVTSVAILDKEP

Binder | pKd
STYCDYTIEI [FAM71C, Q8NEG0] | below the threshold
RSPVATATSC [DUSP5, Q16690] | below the threshold

Each binder was assayed against T1, SYNJ2BP, P57105 (assay: holdup assay). Conditions: plain residues with an end cap or a label only (N-terminal biotin on a linker: ado-ado).
Parameters: key: below the threshold = too weak to quantify, mostly under pKd 3.1 to 4

Binder | pKd
STYCDYTIEI [FAM71C, Q8NEG0] | below the threshold
RSPVATATSC [DUSP5, Q16690] | below the threshold

The binders below were run against GRID2IP_1, A4D2P6 (assay: holdup assay). Conditions: plain residues with an end cap or a label only (N-terminal biotin on a linker: ado-ado).
Parameters: key: below the threshold = too weak to quantify, mostly under pKd 3.1 to 4

Sequence of GRID2IP_1, A4D2P6 (A4D2P6 1-87): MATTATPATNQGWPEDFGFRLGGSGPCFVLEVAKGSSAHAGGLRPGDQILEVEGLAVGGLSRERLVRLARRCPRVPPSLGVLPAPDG

Binder | pKd
STYCDYTIEI [FAM71C, Q8NEG0] | below the threshold
RSPVATATSC [DUSP5, Q16690] | below the threshold

These binders were tested against MAGI1_1, Q96QZ7 (assay: holdup assay). Conditions: plain residues with an end cap or a label only (N-terminal biotin on a linker: ado-ado).
Parameters: key: below the threshold = too weak to quantify, mostly under pKd 3.1 to 4

Sequence of MAGI1_1, Q96QZ7 (Q96QZ7 1-106): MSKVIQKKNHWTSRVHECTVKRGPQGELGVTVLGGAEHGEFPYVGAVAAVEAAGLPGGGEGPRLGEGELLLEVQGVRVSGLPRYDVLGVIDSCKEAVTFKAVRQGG

Binder | pKd
STYCDYTIEI [FAM71C, Q8NEG0] | below the threshold
RSPVATATSC [DUSP5, Q16690] | below the threshold

Each binder was assayed against DLG4_3, P78352 (assay: holdup assay). Conditions: plain residues with an end cap or a label only (N-terminal biotin on a linker: ado-ado).
Parameters: key: below the threshold = too weak to quantify, mostly under pKd 3.1 to 4

Sequence of DLG4_3, P78352 (P78352 306-403): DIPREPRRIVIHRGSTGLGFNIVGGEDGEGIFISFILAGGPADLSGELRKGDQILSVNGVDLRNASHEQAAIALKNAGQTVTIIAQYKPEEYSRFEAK

Binder | pKd
STYCDYTIEI [FAM71C, Q8NEG0] | below the threshold
RSPVATATSC [DUSP5, Q16690] | below the threshold

These binders were tested against T2, PDZD7_3, Q9H5P4 (assay: holdup assay). Conditions: plain residues with an end cap or a label only (N-terminal biotin on a linker: ado-ado).
Parameters: key: below the threshold = too weak to quantify, mostly under pKd 3.1 to 4

Binder | pKd
STYCDYTIEI [FAM71C, Q8NEG0] | 3.55
RSPVATATSC [DUSP5, Q16690] | 3.72

Each binder was assayed against T3, SHANK1, Q9Y566 (assay: holdup assay). Conditions: plain residues with an end cap or a label only (N-terminal biotin on a linker: ado-ado).
Parameters: key: below the threshold = too weak to quantify, mostly under pKd 3.1 to 4

Binder | pKd
STYCDYTIEI [FAM71C, Q8NEG0] | below the threshold
RSPVATATSC [DUSP5, Q16690] | 3.55

What follows are binders tested against T4, PTPN13_1, Q12923 (assay: holdup assay). Conditions: plain residues with an end cap or a label only (N-terminal biotin on a linker: ado-ado).
Parameters: key: below the threshold = too weak to quantify, mostly under pKd 3.1 to 4

Binder | pKd
STYCDYTIEI [FAM71C, Q8NEG0] | below the threshold
RSPVATATSC [DUSP5, Q16690] | below the threshold

These binders were tested against Inadl_8, Q8NI35 (assay: holdup assay). Conditions: plain residues with an end cap or a label only (N-terminal biotin on a linker: ado-ado).
Parameters: key: below the threshold = too weak to quantify, mostly under pKd 3.1 to 4

Sequence of Inadl_8, Q8NI35 (Q8NI35 1425-1530): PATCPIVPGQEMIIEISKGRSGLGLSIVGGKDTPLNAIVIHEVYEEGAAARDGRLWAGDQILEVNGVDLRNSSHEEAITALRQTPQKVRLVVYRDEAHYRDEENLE

Binder | pKd
STYCDYTIEI [FAM71C, Q8NEG0] | below the threshold
RSPVATATSC [DUSP5, Q16690] | below the threshold

Each binder was assayed against T5, GRIP1_3, Q9Y3R0 (assay: holdup assay). Conditions: plain residues with an end cap or a label only (N-terminal biotin on a linker: ado-ado).
Parameters: key: below the threshold = too weak to quantify, mostly under pKd 3.1 to 4

Binder | pKd
STYCDYTIEI [FAM71C, Q8NEG0] | below the threshold
RSPVATATSC [DUSP5, Q16690] | below the threshold

The binders below were run against T6, DFNB31_1, Q9P202 (assay: holdup assay). Conditions: plain residues with an end cap or a label only (N-terminal biotin on a linker: ado-ado).
Parameters: key: below the threshold = too weak to quantify, mostly under pKd 3.1 to 4

Binder | pKd
STYCDYTIEI [FAM71C, Q8NEG0] | below the threshold
RSPVATATSC [DUSP5, Q16690] | below the threshold

The binders below were run against AHNAK1, Q09666 (assay: holdup assay). Conditions: plain residues with an end cap or a label only (N-terminal biotin on a linker: ado-ado).
Parameters: key: below the threshold = too weak to quantify, mostly under pKd 3.1 to 4

Sequence of AHNAK1, Q09666 (Q09666 4-100): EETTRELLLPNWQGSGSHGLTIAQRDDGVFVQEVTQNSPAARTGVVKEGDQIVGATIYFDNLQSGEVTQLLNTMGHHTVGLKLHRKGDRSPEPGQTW

Binder | pKd
STYCDYTIEI [FAM71C, Q8NEG0] | below the threshold
RSPVATATSC [DUSP5, Q16690] | below the threshold

These binders were tested against T7, MPP6, Q9NZW5 (assay: holdup assay). Conditions: plain residues with an end cap or a label only (N-terminal biotin on a linker: ado-ado).
Parameters: key: below the threshold = too weak to quantify, mostly under pKd 3.1 to 4

Binder | pKd
STYCDYTIEI [FAM71C, Q8NEG0] | 3.67
RSPVATATSC [DUSP5, Q16690] | below the threshold

These binders were tested against FRMPD2_3, Q68DX3 (assay: holdup assay). Conditions: plain residues with an end cap or a label only (N-terminal biotin on a linker: ado-ado).
Parameters: key: below the threshold = too weak to quantify, mostly under pKd 3.1 to 4

Sequence of FRMPD2_3, Q68DX3 (Q68DX3 1073-1166): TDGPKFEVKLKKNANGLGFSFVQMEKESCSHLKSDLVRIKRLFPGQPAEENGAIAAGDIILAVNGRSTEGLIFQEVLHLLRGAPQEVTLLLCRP

Binder | pKd
STYCDYTIEI [FAM71C, Q8NEG0] | below the threshold
RSPVATATSC [DUSP5, Q16690] | below the threshold

These binders were tested against DLG4_2, P78352 (assay: holdup assay). Conditions: plain residues with an end cap or a label only (N-terminal biotin on a linker: ado-ado).
Parameters: key: below the threshold = too weak to quantify, mostly under pKd 3.1 to 4

Sequence of DLG4_2, P78352 (P78352 155-259): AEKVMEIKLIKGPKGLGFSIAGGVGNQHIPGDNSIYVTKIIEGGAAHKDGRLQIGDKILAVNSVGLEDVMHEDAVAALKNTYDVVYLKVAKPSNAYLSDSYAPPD

Binder | pKd
STYCDYTIEI [FAM71C, Q8NEG0] | below the threshold
RSPVATATSC [DUSP5, Q16690] | below the threshold

The binders below were run against NHERF2_2, Q15599 (assay: holdup assay). Conditions: plain residues with an end cap or a label only (N-terminal biotin on a linker: ado-ado).
Parameters: key: below the threshold = too weak to quantify, mostly under pKd 3.1 to 4

Sequence of NHERF2_2, Q15599 (Q15599 142-238): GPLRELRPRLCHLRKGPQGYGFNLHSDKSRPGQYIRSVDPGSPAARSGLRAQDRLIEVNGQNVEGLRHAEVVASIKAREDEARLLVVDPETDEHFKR

Binder | pKd
STYCDYTIEI [FAM71C, Q8NEG0] | below the threshold
RSPVATATSC [DUSP5, Q16690] | below the threshold

The binders below were run against T8, MPDZ_12, O75970 (assay: holdup assay). Conditions: plain residues with an end cap or a label only (N-terminal biotin on a linker: ado-ado).
Parameters: key: below the threshold = too weak to quantify, mostly under pKd 3.1 to 4

Binder | pKd
STYCDYTIEI [FAM71C, Q8NEG0] | below the threshold
RSPVATATSC [DUSP5, Q16690] | below the threshold

The binders below were run against DLG5_1, Q8TDM6 (assay: holdup assay). Conditions: plain residues with an end cap or a label only (N-terminal biotin on a linker: ado-ado).
Parameters: key: below the threshold = too weak to quantify, mostly under pKd 3.1 to 4

Sequence of DLG5_1, Q8TDM6 (Q8TDM6 617-713): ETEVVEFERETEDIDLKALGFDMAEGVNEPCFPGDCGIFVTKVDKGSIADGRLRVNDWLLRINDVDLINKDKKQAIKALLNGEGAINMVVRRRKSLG

Binder | pKd
STYCDYTIEI [FAM71C, Q8NEG0] | below the threshold
RSPVATATSC [DUSP5, Q16690] | below the threshold

The binders below were run against T9, APBA1_2, Q02410 (assay: holdup assay). Conditions: plain residues with an end cap or a label only (N-terminal biotin on a linker: ado-ado).
Parameters: key: below the threshold = too weak to quantify, mostly under pKd 3.1 to 4

Binder | pKd
STYCDYTIEI [FAM71C, Q8NEG0] | below the threshold
RSPVATATSC [DUSP5, Q16690] | below the threshold

The binders below were run against GRID2IP_2, A4D2P6 (assay: holdup assay). Conditions: plain residues with an end cap or a label only (N-terminal biotin on a linker: ado-ado).
Parameters: key: below the threshold = too weak to quantify, mostly under pKd 3.1 to 4

Sequence of GRID2IP_2, A4D2P6 (A4D2P6 272-370): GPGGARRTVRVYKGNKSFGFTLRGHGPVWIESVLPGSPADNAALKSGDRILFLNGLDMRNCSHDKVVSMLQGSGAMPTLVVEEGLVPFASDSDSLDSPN

Binder | pKd
STYCDYTIEI [FAM71C, Q8NEG0] | below the threshold
RSPVATATSC [DUSP5, Q16690] | 3.79

Each binder was assayed against T10, DFNB31_3, Q9P202 (assay: holdup assay). Conditions: plain residues with an end cap or a label only (N-terminal biotin on a linker: ado-ado).
Parameters: key: below the threshold = too weak to quantify, mostly under pKd 3.1 to 4

Binder | pKd
STYCDYTIEI [FAM71C, Q8NEG0] | 3.86
RSPVATATSC [DUSP5, Q16690] | below the threshold

Each binder was assayed against T11, GRIP1_7, Q9Y3R0 (assay: holdup assay). Conditions: plain residues with an end cap or a label only (N-terminal biotin on a linker: ado-ado).
Parameters: key: below the threshold = too weak to quantify, mostly under pKd 3.1 to 4

Binder | pKd
STYCDYTIEI [FAM71C, Q8NEG0] | below the threshold
RSPVATATSC [DUSP5, Q16690] | below the threshold

Each binder was assayed against T12, APBA3_1, O96018 (assay: holdup assay). Conditions: plain residues with an end cap or a label only (N-terminal biotin on a linker: ado-ado).
Parameters: key: below the threshold = too weak to quantify, mostly under pKd 3.1 to 4

Binder | pKd
STYCDYTIEI [FAM71C, Q8NEG0] | below the threshold
RSPVATATSC [DUSP5, Q16690] | below the threshold

What follows are binders tested against TJP1_3, Q07157 (assay: holdup assay). Conditions: plain residues with an end cap or a label only (N-terminal biotin on a linker: ado-ado).
Parameters: key: below the threshold = too weak to quantify, mostly under pKd 3.1 to 4

Sequence of TJP1_3, Q07157 (Q07157 416-512): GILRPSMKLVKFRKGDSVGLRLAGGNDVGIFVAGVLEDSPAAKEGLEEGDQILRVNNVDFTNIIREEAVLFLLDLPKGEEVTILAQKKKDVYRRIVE

Binder | pKd
STYCDYTIEI [FAM71C, Q8NEG0] | below the threshold
RSPVATATSC [DUSP5, Q16690] | below the threshold

Each binder was assayed against PDZRN4_1, Q6ZMN7 (assay: holdup assay). Conditions: plain residues with an end cap or a label only (N-terminal biotin on a linker: ado-ado).
Parameters: key: below the threshold = too weak to quantify, mostly under pKd 3.1 to 4

Sequence of PDZRN4_1, Q6ZMN7 (Q6ZMN7 213-318): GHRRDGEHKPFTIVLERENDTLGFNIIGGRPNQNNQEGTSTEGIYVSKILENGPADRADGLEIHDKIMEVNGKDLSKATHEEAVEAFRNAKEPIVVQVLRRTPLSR

Binder | pKd
STYCDYTIEI [FAM71C, Q8NEG0] | below the threshold
RSPVATATSC [DUSP5, Q16690] | below the threshold

The binders below were run against DLG1_1, Q12959 (assay: holdup assay). Conditions: plain residues with an end cap or a label only (N-terminal biotin on a linker: ado-ado).
Parameters: key: below the threshold = too weak to quantify, mostly under pKd 3.1 to 4

Binder | pKd
STYCDYTIEI [FAM71C, Q8NEG0] | below the threshold
RSPVATATSC [DUSP5, Q16690] | below the threshold
